Assay results published in the DeepSol protein solubility set.

Experiment: soluble on expression in E. coli; label from the status in PepcDB or PDB records

Soluble on expression in E. coli, not soluble:
MGSDKIHHHHHHMGNTVAMILAGGQGTRLGVLTERIAKPAVPFGGKYRLIDFTLSNCVNSGIYRVGVLTQYRPHVLSKHIGIGRPWDLDRKDGGVEILPPYVGRHESDWYKGTANAVYQNLEFLEENDAELVLILSGDHVYAMNYNDLIDYHLLKEADGTIACMEVPIEEASRFGIMITDVDGRIVDFEEKPAKPRSNLASLGIYVFNYEFLKKVLIEDENDPNSSHDFGKDVIPRILRENLGSLYAFRFDGYWRDVGTLRSYWEANLELVLPVPPFNLYDPNWRFFTHTEEMPPAYVAPGSKVSTSLVSEGAEVYGNVFNSVIFQGVKIGRGTVVKNSVIMTRTEIGENCYLENVIIAENVKIGSNVRMGVGEDAESKLDPKVYSGLLTVVGMNSVIPDDMVIGKNCVIGIGVRPEDFKSKTLESGDYVIVREE, MGSDKIHHHHHHMHASVKFRIAEIINSTMPSAEWRLLKQIGVNEVVGTLPRDPSDWRGDQPDLPWDYAPLSSLKRRLSEYGLTLSAIEDNPPMEKIKYGVKGKEDELENVLRLIENMGRLKIGVWCYNWMAGQGWMRSRISIPDRGGAEVTGFSLSDIEEYPPPKMGKIDAETLWKNLAWFLDNVIPVAEDSGVKIAMHPDDPPLEEIRGVSRIMNNVKAFDKLIEMKRSEYNTITLCQGNFTLMTEDLPSAIRHFVRKKAVSFVHFRDVKGKKDNFIESFIDDGKTDTASCMSAYIEEGFDGIMRTDHTPTLYGDTYKVPGYSILGRLHAIGYIQGLIDGVSMV, MGSDKIHHHHHHMHDVLAKGILSSNNGMNIYRGCTHGCIYCDARSLCYGMDHIFEDIEVKTNVVELLEDTLKRKRKKCMIGTGAMSDPYIHLEEKLQNTRRCLEIIDKYGFGLSILTKSNRILRDLDLLKSINNKAKCVVEMTLTTYDEELCKIIEPNVSTTKERFEVLKIMRDNKIPTVVWLSPILPYINDTEENIRGILDYCIEAEVKGIIVFGIGVTLRNGNREYYYKNLDKQFKGLKEKYIRQYGNSYEVVSKNHEKLMKIIKETCNKNNIICDIREVFNYMRTFEEKNNEVQIGFDI, MGSDKIHHHHHHMHEDHFDKFVQKNLDRNIPIVTTEEAGKSLKELGFMKRHPLKTWDTLIVERGNTLLRVTAMPGRHGPPIVAELLPEVMGSLLDFGIKNSPRSYRMYISGDTMVFDDIKEIPRRYPDVDLALLHLGGTRLLGLVTVTMDAKEGVKMMQLIVPRKAIPIHYNDYDVFKSPLSDFKKEMERAGLQDKIIYLEHGDTYEFDLEEK, MGSDKIHHHHHHMHIADITMFYAPASGGVRTYLEAKRNRLAKLPGVTSSLLVPGAYHRSHGSIHEVPAPPLPFSQGYRFPLKRRGWQRELHRLAPDLIEAGDPYVTAWAALDAGRALDVPVVGFYHSDLPRLIGNRLGNWTRAALDRYVRNLYGHCDRVLAPSRVIADRLQTLGLDNVAVQPLGVDLTTFSPQRRQFAFRQRLGLDDDTRLLIFVGRGSREKNLSVLLDTARHLGKGYHLVLIGPQMPQRVPDNVSVIGRYTATADVADWLASSDILLHAGTQETFGLVALEAMASGIPVVAARAGALAENVPLGCGRLCEPHSAQDMARAVRELCADAPEEQGRRARQHVERHHDWDIVVSSLMHHYRELTGQRVNTESLQHG, MGSDKIHHHHHHMHPKSPLTMQQSSVFIDSEVLLDDRKFAEAMLLKKDKAGLSRADMVFVLRNLLRLKYYPVAVKFFYDEAEVEKFKAEHEYLVACNPFTFCHFCAESRQKGDVLFGERRTLGCSNARYLFGWKDYDENEIKSHMKYVKDREQAERFVKTKPRLPEGLLAFATAPLHKAKFEPDLVFIICDVLQSYHLYNDYAAAMDVHPIRPNFMMNSAACGGAVWSYVENTINIVPMCSGSYTAGKTEQGEINVFIPWAHFEKLVVRLLERTASQGGASFPRTGETYPGFDICKLCNFLLFRKPKEDE, MGSDKIHHHHHHMIALGIEGTAWSLSIGVVDEEGVIALENDPYIPKEGGIHPREASQHHSERLPSLLSRVFEKVDKNSIDVVAFSQGPGMGPCLRVVATAARLLAIKLEKPLVGVNHCLAHVEVGRWQTGARKPVSLYVSGGNSQVIARRGNRYRVFGETLDIGIGNALDKLARHMGLKHPGGPKIEELAKKGQKYHFLPYVVKGMDFSFSGMVTAAQRLFDSGVRMEDVAFSFQETAFAMLTEVTERALAYLDLNEVLLVGGVAANKRLQEMLRIMCEDRGAKFYVPPKELAGDNGAMIAYTGLLMYKHGHQTPVEKSYVRPDFRIEDVEVNWD, MGSDKIHHHHHHMIDVTFDPTLANTLAQSLKLTAIALPLDLQIGDLTRLTDAKNSYWGLKARYTKSGGASAEFAAVTTSQQRLQQVLATGATLRVWTSVNPADQLGWGWLCSQLVQAQFMGVIQRIQIPLSGPVMTEMGPVFMQNSTIGELDEPALEHDLATAKVVTAADWVAFSYHWQACYEDNAALRLILGGRVVGVPQDFLDPLVRTCYRPEQSTAQTLGRILDNYPIGMPNWWWQYRIDQIAKASVR, MGSDKIHHHHHHMIGYGKTVRDIRTSKGIHQKDLYDNIISKSFAIEFEKGKHDITLSLFEKILKRMNMDLDEFFYIHRELSKSAEKNYLCMNQERGNIYDLESLELLYSELSKHDGELVEVWKAFVRSRIKMVEHLLKYHEFTVDVITAKDKCTIQKYLFSIDTWTLEELKICANSIYFFEEDLQIQFLNQVIKAIQPYKNYDRARRVLCTLLINTIEVFISRSQLSSASKLLILLDSLCIYNESAFYRNISNFLKGLLKMQSNQIKEGYAQAKKAIQLMNDLHFEEIAYLYEILLDQFIQLEGIDILNY, MGSDKIHHHHHHMIHIRPFQHQDADYRVMADVYNALAPDAPLSAIEWRIRDEIHNPNLPLCRWIGELDGRAGGYAEYYQPTWCADPTHLEMQIVVHPAVQGRGLGRALWQHLQMAWQPLRPHHIWLKVREDWQAGLMFAGRRQFHESRRVWVSRLDLATFDPQPFSGSIERVTAQQIELISFAALATADQGFWQQLYEFERQTTGDVPSPFPVTMPTYDQWIKLYQPDHGALWEGSFAAVHEGQIVGISTLETIDDSTDVEVGFTAVRRDYRGRGIALALKLCTIAYAGAQGLSGIRTDNDSTNLAMWHINERLGFRRGPVWIVLHRCEQNEEVT, MGSDKIHHHHHHMIHWLKVPNNPELAKYIACYWFLEKLPNAEGHNDYPKLNPDPASHLILALPQQNFRYKSDNGVTQMDGCHWLHPHGKTYELDHAKAVACIGIKFHVGALYSLPTFMDLQEQTPQAVVDTVEAISFENINFAQSNFDDHKLSDNNQLNEHDLVILARNSPDDCAEMLDKLCLPWLLKNHEDNHSELTRKVLPLLAKAAINSLGDTLFCSQRTLERSFLKVSGVTLKQCQSMNRLEAILEFLYQREQSDIDWVDIAYQFGFSDQPHLIRYLKKQLGLTPQDYALQRGFTIDVYGGVDSL, MGSDKIHHHHHHMIIEHARDMLKRERLFFDKIQAHIGEVNGTISIGCSSLIGQTLLPEVLSLYNSQFPNVEIQVQVGSTEQIKAHHRDYHVMITRGNKVMNLSNTHLFNDEHYFIYPKDRKEDVTKLPFIEFQADPIYINQIKQWYNDHLGHDYHATITVDQVATCKEMLLSGVGVTILPKIMMKNIDKNMFEFEKVTIDKKPLIRSTYMSYDASMLQLPQVDAFVNLMLNFIR, MGSDKIHHHHHHMIIGGLYMKFFEENYSQEIPTRIKNLRKKHNITQSELGNAGQVSQVESGKRPITSSMLVYLNALTASNYTYIVFGELDEFIENLFHYFFSSILYRDLEAVDENLYSFMSDDLISIQSSCLSIAKTFANFNIQRKRFMISTETEMDTFHKKDDIDVWVGGKSYNPARSFRNNPINELTVIDFEEMADILLLMLRDNLIRSFEINVCNTLFELDKNGEPTTFNLDKIDSIINKWWSENVSTEIIPNLIKKLRENPLFNIGFMVNDILERMYKEDIPKSYLTSVPLVISKKARSTLSIKSNGSQKIDKSKFAQILSL, MGSDKIHHHHHHMIISDVLYGEFEVDQVVEELILSKSVQRLKGIHQTGASYLVNKEWNVTRFDHSVGVMLLVKKLGGSVEEQIAGLLHDVSHTAFSHVVDYVFDNRNESYHEEIFSSVVKHSEIPAILAKYGYNYEEILLDDSKWTLLERSAPELCADRVDYTLRDMYTYGYISLEEAHSFLEDVIEVNGKMVLQNIEMAEWFTETYYKEVIDFFMQPMNSYGNDMLAKTLKLALHKKVIHADDFLLEDDELISKLQQCSDPEVHALVSKVHPNVKVKEDRNDYDLYQNNKVRLIDPSLLREGEVVPSSVVSENIRKMSEIAYEKAVRGMYVKVVSD, MGSDKIHHHHHHMIKNNRVYGIIGVGAYMANFNADLSGYPKTTTNNDIFGSDKALKYPMKRMWLIEGDKVFYIKSMTIAKSKKDKEMEILQPKDLIERYEDLFGKEWDANLTVKDVAKDLFSTVDIMNFGATFTGSESESKTAKKKIGHNISITGAVQINQGFNLYEKTNVLVQDILSPFRNPNDKSEDKTATSIGTKIVTDEAHYVYSFSVNPANYADYLGLIDGFEGYTTEAYEKFKRAARVATTAFNTNSKSGCENELALFIELKEDSKLFLANLDRYVEVRKKEKQTLYDLSKLAEIIAPQQEEIQSIELFHNPISVEVNYGSLPCTVNSIF, MGSDKIHHHHHHMIKQVNPHFKEFLFDWNQKFQFLVGGYGSSKSYHVALKIVLKLLREKRTALVIREVYDTHRDSTFSLFDELVSDLKLDHIVRCVSSPMQIRFSNGSRIIFKGMDKPAKLKSINNISLIWIEECSEVKYEGFKELLGRLRHPTLPLHMILSTNPVGEDNWTFKHFFKDDREKRFVLDDKELYEKRIIVSNDTYYHHSTADDNLFLPESYVQQLEELKEYDPDLYRIARKGHFGVNGIRVLPQFEERPHEEVMTAISNINRPLKRVGMDFGFVESYNAVVRVAVDHEKKYLYIYWEYYKNGLTDDKTAEELKEFAETKELIKADSAEPKTIRYFQQHGFNMVGARKYQGSRLQYTKKIKRFRKIICSDRCENTIYELKPLAYATDKLGNIIEDEFTIDPHTLSAIWYALDDYEVTDLKEESKGRPQRSRPGRR, MGSDKIHHHHHHMILAAKLFGISENGIRVAVTRLASEGVIVSAERGFYQLSEQSLEWADVMLNRRAGLKETKAWNQKYLCVLTGTLGRVDRTALKRRERALKKYGFRELEPSVYIRPDNLVISLEDMLEHMKSIGLESGAKMCHINSFDQITTGMIKDLWQTENLNKNYEKYSHIIQHWLSRVPALGLEDAARESLLLGRQTISLLMNDPLLPEPFVNVEARDQFTADVKKLDEVGQRLWKQLHELTFGTAATSLLNLELPAVADVTPKILN, MGSDKIHHHHHHMILEALQYAATRAVTPKEFRPHVRYSVNLWARANRCAKAWAEHENNSRQFVLQSAKKLKQRRTAVVLGSGLLRDVPHDALVAMFDTVVMVDLVHLASVQAKLRLNAKKNVRIANRDLSGFDDLLAGRPAEPLDFLRRVPYLDFVVSANLLSQIGTGAQHRLEREKIANVPGDLLPKLIQTHLDALAGLPCKVCLVTDTAFDVIGKDGSVQQHEDLLHGIEIASPAAAWDWPLAPFGEESRDYRIVHHVIAREMT
